Target: the molecule itself
Test: cross-linking

B1: P2X4-GFP (receptor, UniProt P51577 1-388, looked up)
chain: MAGCCSVLGSFLFEYDTPRIVLIRSRKVGLMNRAVQLLILAYVIGWVFVWEKGYQETDSVVSSVTTKAKGVAVTNTSQLGFRIWDVADYVIPAQEENSLFIMTNMIVTVNQTQSTCPEIPDKTSICNSDADCTPGSVDTHSSGVATGRCVPFNESVKTCEVAAWCPVENDVGVPTPAFLKAAENFTLLVKNNIWYPKFNFSKRNILPNITTSYLKSCIYNAQTDPFCPIFRLGTIVEDAGHSFQEMAVEGGIMGIQIKWDCNLDRAASLCLPRYSFRRLDTRDLEHNVSPGYNFRFAKYYRDLAGKEQRTLTKAYGIRFDIIVFGKAGKFDIIPTMINVGSGLALLGVATVLCDVIVLYCMKKKYYYRDKKYKYVEDYEQGLSGEMNQ
For B1, the “stoichiometry N” value was 3.

B2: CHC-TFE3 fusion protein, Flag- or Myc-tagged (other, human, UniProt Q00610 1-932, looked up)
chain: MAQILPIRFQEHLQLQNLGINPANIGFSTLTMESDKFICIREKVGEQAQVVIIDMNDPSNPIRRPISADSAIMNPASKVIALKAGKTLQIFNIEMKSKMKAHTMTDDVTFWKWISLNTVALVTDNAVYHWSMEGESQPVKMFDRHSSLAGCQIINYRTDAKQKWLLLTGISAQQNRVVGAMQLYSVDRKVSQPIEGHAASFAQFKMEGNAEESTLFCFAVRGQAGGKLHIIEVGTPPTGNQPFPKKAVDVFFPPEAQNDFPVAMQISEKHDVVFLITKYGYIHLYDLETGTCIYMNRISGETIFVTAPHEATAGIIGVNRKGQVLSVCVEEENIIPYITNVLQNPDLALRMAVRNNLAGAEELFARKFNALFAQGNYSEAAKVAANAPKGILRTPDTIRRFQSVPAQPGQTSPLLQYFGILLDQGQLNKYESLELCRPVLQQGRKQLLEKWLKEDKLECSEELGDLVKSVDPTLALSVYLRANVPNKVIQCFAETGQVQKIVLYAKKVGYTPDWIFLLRNVMRISPDQGQQFAQMLVQDEEPLADITQIVDVFMEYNLIQQCTAFLLDALKNNRPSEGPLQTRLLEMNLMHAPQVADAILGNQMFTHYDRAHIAQLCEKAGLLQRALEHFTDLYDIKRAVVHTHLLNPEWLVNYFGSLSVEDSLECLRAMLSANIRQNLQICVQVASKYHEQLSTQSLIELFESFKSFEGLFYFLGSIVNFSQDPDVHFKYIQAACKTGQIKEVERICRESNCYDPERVKNFLKEAKLTDQLPLIIVCDRFDFVHDLVLYLYRNNLQKYIEIYVQKVNPSRLPVVIGGLLDVDCSEDVIKNLILVVRGQFSTDELVAEVEKRNRLKLLLPWLEARIHEGCEEPATHNALAKIYIDSNNNPERFLRENPYYDSRVVGKYCEKRDPHLACVAYERGQCDLELINLPVSGNLLDVYSSQGVATPAITVSNSCPAELPNIKREISETEAKALLKERQKKDNHNLIERRRRFNINDRIKELGTLIPKSSDPEMRWNKGTILKASVDYIRKLQKEQQRSKDLESRQRSLEQANRSLQLRIQELELQAQIHGLPVPPTPGLLSLATTSASDSLKPEQLDIEEEGRPGAATFHVGGGPAQNAPHQQPPAPPSDALLDLHFPSDHLGDLGDPFHLGLEDILMEEEEGVVGGLSGGALSPLRAASDPLLSSVSPAVSKASSRRSSFSMEEES
For B2, the “stoichiometry N” value was 2.

— article PMC3362863 (Traffic (Copenhagen, Denmark), 2011)
